Reference: patent publication US20240067706A1 (published 2024)

Columns and labels:
Assay in all cases: BLI
[1] = molecular target: T1, MERS-CoV S protein (soluble, purified in vitro) (MERS-CoV, UniProt K9N5Q8 18-1297)
T1 chain: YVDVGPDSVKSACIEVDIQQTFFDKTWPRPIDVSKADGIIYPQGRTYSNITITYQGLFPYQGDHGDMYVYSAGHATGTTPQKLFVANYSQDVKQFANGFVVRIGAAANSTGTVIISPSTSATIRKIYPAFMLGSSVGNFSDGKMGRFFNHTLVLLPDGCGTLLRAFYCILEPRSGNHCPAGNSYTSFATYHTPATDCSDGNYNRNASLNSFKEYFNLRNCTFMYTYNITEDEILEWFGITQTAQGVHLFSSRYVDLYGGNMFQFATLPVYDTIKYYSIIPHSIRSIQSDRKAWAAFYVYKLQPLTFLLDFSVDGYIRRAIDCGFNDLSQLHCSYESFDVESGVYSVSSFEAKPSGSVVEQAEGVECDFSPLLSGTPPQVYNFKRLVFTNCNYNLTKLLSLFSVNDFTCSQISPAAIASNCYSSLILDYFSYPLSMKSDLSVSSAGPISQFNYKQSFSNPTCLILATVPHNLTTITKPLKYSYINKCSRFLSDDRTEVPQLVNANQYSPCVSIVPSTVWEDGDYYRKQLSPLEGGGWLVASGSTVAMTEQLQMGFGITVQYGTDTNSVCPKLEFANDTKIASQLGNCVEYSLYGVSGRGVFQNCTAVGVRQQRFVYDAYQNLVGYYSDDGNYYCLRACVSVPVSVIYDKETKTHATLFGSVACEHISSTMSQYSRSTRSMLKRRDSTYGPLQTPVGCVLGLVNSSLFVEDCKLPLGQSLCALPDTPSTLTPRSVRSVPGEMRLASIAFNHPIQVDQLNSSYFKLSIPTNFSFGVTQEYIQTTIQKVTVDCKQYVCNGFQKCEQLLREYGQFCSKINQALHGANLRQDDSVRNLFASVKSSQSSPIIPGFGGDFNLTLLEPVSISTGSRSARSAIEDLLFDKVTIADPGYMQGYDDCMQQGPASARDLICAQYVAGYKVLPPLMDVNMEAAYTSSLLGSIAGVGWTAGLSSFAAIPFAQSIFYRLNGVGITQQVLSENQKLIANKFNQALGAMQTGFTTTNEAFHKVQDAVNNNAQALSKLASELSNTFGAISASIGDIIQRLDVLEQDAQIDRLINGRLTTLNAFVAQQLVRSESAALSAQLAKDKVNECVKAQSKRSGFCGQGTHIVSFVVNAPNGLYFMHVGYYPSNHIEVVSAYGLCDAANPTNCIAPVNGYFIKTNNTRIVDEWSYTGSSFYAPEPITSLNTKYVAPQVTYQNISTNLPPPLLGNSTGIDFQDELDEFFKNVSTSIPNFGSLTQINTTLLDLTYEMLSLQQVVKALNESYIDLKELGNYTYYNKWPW

[2] = molecular target: SARS-CoV S protein (soluble, purified in vitro) (SARS-CoV, UniProt P59594 14-1195)
[3] = molecular target: SARS-CoV-2 S protein (full-length S protein, soluble, purified in vitro) (SARS-CoV-2, UniProt P0DTC2 16-1213)

B1: fully human monoclonal antibody 76E1 (antibody, V domains shown)
VH: EVQLVESGGGVVQPGGSLRLSCEASGFSFKDYGMHWIRQTPGKGLEWISRISGDTRGTSYVDSVKGRFIVSRDNSRNSLFLQMNSLRSEDTALYYCAALVIVAAGDDFDLWGQGTVVTVSS
VL: QSALTQPLSVSGSPGQSVTISCTGSSSDIGSYNFVSWYRQYPGKAPKVMIYEVNKRPSGVPVRFSGSKSGNTASLTVSGLQHEDEADYYCCSYGGRNNLIFGGGTKLTVL
Kd [1]: 1.03 nM | Kd [2]: 0.107 nM | Kd [3]: 0.431 nM
